Results: the RNAGym collection of RNA variant scans (doi:10.1101/gr.219683.116)

B1: mRNA-splicing (parent)
chain: AGUUGCUGCUGGGAGCUCCAGCACAGUGAAAUGGACAGAAGGGCAGAGCAA

Variants of: B1
Assay: exon inclusion enrichment index; higher = more inclusion; WT1 exon 5 minigene, HEK293

Variant | exon inclusion enrichment index
G5C C6G U7C U10C G41U | 3.2
G5C C6U G8C C9U U10C A20C G21C | 0.524
G5C C6U G8C C9U U10C A20C G21U | 0.926
G5C C6U G8C C9U U10C A20C G21A | 0.599
G5C C6G U7G C9A | 1.02
G5C C6U G8C C9U U10C A35U C36A | 0.00287
G5C C6U G8C C9U U10C A35U C36G | 0.181
G5C C6U G8C C9U U10C A35U C36U | 0.0294
G5C C6U G8C C9U U10C A45G G46U | 1.68
G5C C6U G8C C9U U10C A45G G46C | 2.3
G5C C6U G8C C9U U10C A45G G46A | 3.98
G5C C6G U7C U10C U27A G28U | 1.9
G5C C6G U7C U10C U27A G28A | 3.01
G5C C6G U7C U10C U27A G28C | 3.86
G5C C6G U7C U10C U17A C18U | 3.37
G5C C6G U7C U10C U17A C18A | 2.9
G5C C6G U7C U10C U17A C18G | 4.2
G5C C6G U7C U10C G48C | 3.91
G5C C6G U7C U10C G48U | 4.46
G5C C6G U7C U10C G48A | 4.29
G5C C6G U7C U10C G46U A47C | 3.73
G5C C6G U7C U10C G46U A47G | 2.91
G5C C6G U7C U10C G46U A47U | 3.93
G5C C6U G8A U10C | 1.18

Variant | exon inclusion enrichment index
G5C C6U G8A U10A | 0.0597
G5C C6U G8C C9U U10C A37U G38A | 0.713
G5C C6U G8C C9U U10C A37U G38U | 0.446
G5C C6U G8C C9U U10C A37U G38C | 1.03
G5C C6G U7C U10C G43U C44G | 0.713
G5C C6G U7C U10C G43U C44U | 1.4
G5C C6G U7C U10C G43U C44A | 0.0721
G5C C6U G8C C9U U10C A31U U32G | 1.04
G5C C6U G8C C9U U10C A31U U32A | 0.179
G5C C6U G8C C9U U10C A31U U32C | 2.61
G5C C6U G8C C9U U10C A14G G15A | 1.17
G5C C6U G8C C9U U10C A14G G15U | 0.546
G5C C6U G8C C9U U10C A14G G15C | 0.826
G5C C6U G8C C9U U10C A30U A31G | 2.12
G5C C6U G8C C9U U10C A30U A31U | 1.52
G5C C6U G8C C9U U10C A30U A31C | 1.95
G5C C6G U7C U10C U27A | 3.66
G5C C6G U7C U10C U27C | 4.97
G5C C6G U7C U10C U27G | 2.02
G5C C6G U7G G8A U10A | 0.218
G5C C6G U7G G8A U10C | 2.87
G5C C6U G8C C9U U10C A39U A40G | 0.572
G5C C6U G8C C9U U10C A39U A40U | 0.67
G5C C6U G8C C9U U10C A39U A40C | 2.16

Variant | exon inclusion enrichment index
G5C C6G U7C U10C G38U | 1.34
G5C C6G U7C U10C G38A | 2.05
G5C C6G U7C U10C G38C | 2.56
G5C C6G U7C U10C U17G | 1.86
G5C C6G U7C U10C U17A | 3.8
G5C C6G U7C U10C U17C | 3.43
G5C C6U G8C C9U U10C A37C G38A | 1.63
G5C C6U G8C C9U U10C A37C G38C | 1.95
G5C C6U G8C C9U U10C A37C G38U | 1.2
G5C C6U G8C C9A U10A | 1.21
G5C C6U G8C C9A U10C | 2.36
G5C C6U G8C C9A U10G | 0.812
G5C C6U G8C C9U U10C A25G G26A | 4.14
G5C C6U G8C C9U U10C A25G G26U | 2.71
G5C C6U G8C C9U U10C A25G G26C | 3.56
G5C C6U G8A C9A U10C | 0.564
G5C C6U G8C | 1.8
G5C C6U G8C C9U U10C A25C | 3.42
G5C C6U G8C C9U U10C A25G | 3.66
G5C C6U G8C C9U U10C A25U | 2.6
G5C C6U G8C C9U U10C A23G C24G | 3.51
G5C C6U G8C C9U U10C A23G C24A | 3.38
G5C C6U G8C C9U U10C A23G C24U | 0.696
G5C C6U G8C C9U U10C A23C C24U | 0.867

Variant | exon inclusion enrichment index
G5C C6U G8C C9U U10C A23C C24G | 3.11
G5C C6U G8C C9U U10C A23C C24A | 2.31
G5C C6U G8C C9U U10C C18A | 1.39
G5C C6U G8C C9U U10C C18U | 1.62
G5C C6U G8C C9U U10C C18G | 2.21
G5C C6G U7G G8C C9U U10C | 2.15
G5C C6G U7C U10C G43A C44G | 4.94
G5C C6G U7C U10C G43A C44U | 3.64
G5C C6G U7C U10C G43A C44A | 4.31
G5C C6U G8C C9U U10C A23C | 1.9
G5C C6U G8C C9U U10C A23G | 2.93
G5C C6U G8C C9U U10C A23U | 1.39
G5C C6U G8C C9U U10C A47U G48U | 1.45
G5C C6U G8C C9U U10C A47U G48C | 1.37
G5C C6U G8C C9U U10C A47U G48A | 1.58
G5C C6G U7C U10C G41A G42U | 2.89
G5C C6G U7C U10C G41A G42A | 2.54
G5C C6G U7C U10C G41A G42C | 3.88
G5C C6U G8C C9U U10C A14U G15U | 0.556
G5C C6U G8C C9U U10C A14U G15C | 0.66
G5C C6U G8C C9U U10C A14U G15A | 0.472
G5C C6U G8C C9U U10C C18U C19G | 0.675
G5C C6U G8C C9U U10C C18U C19U | 0.0402
G5C C6U G8C C9U U10C C18U C19A | 0.179

Variant | exon inclusion enrichment index
G5C C6G U7C U10C G34C A35C | 0.321
G5C C6G U7C U10C G34C A35U | 1.1
G5C C6G U7C U10C G34C A35G | 2.84
G5C C6G U7C U10C G42C G43C | 3.63
G5C C6G U7C U10C G42C G43U | 3.91
G5C C6G U7C U10C G42C G43A | 4
G5C C6U G8C C9U U10C A39G A40C | 1.79
G5C C6U G8C C9U U10C A39G A40U | 0.232
G5C C6U G8C C9U U10C A39G A40G | 0.186
G5C C6G U7C U10C G41C G42A | 3
G5C C6G U7C U10C G41C G42C | 4.35
G5C C6G U7C U10C G41C G42U | 4.21
G5C C6U G8C C9G | 3.5
G5C C6U G8C C9A | 1.7
G5C C6U G8C C9U | 1.16
G5C C6U G8C C9U U10C C16A | 2.53
G5C C6U G8C C9U U10C C16G | 1.02
G5C C6U G8C C9U U10C C16U | 2.36
G5C C6U G8C C9U U10C C18G C19U | 0.674
G5C C6U G8C C9U U10C C18G C19A | 2.82
G5C C6U G8C C9U U10C C18G C19G | 2.78
G5C C6G U7C U10C G42U G43U | 4.33
G5C C6G U7C U10C G42U G43C | 2.28
G5C C6G U7C U10C G42U G43A | 4.08

Variant | exon inclusion enrichment index
G5C C6G U7C U10C U32A G33U | 2.76
G5C C6G U7C U10C U32A G33C | 3.67
G5C C6G U7C U10C U32A G33A | 2
G5C C6U G8C C9U U10C A37G G38C | 2.08
G5C C6U G8C C9U U10C A37G G38U | 0.627
G5C C6U G8C C9U U10C A37G G38A | 1.79
G5C C6U G8C C9U U10C A14C G15C | 0.406
G5C C6U G8C C9U U10C A14C G15U | 0.523
G5C C6U G8C C9U U10C A14C G15A | 0.459
G5C C6G U7C U10C U17G C18G | 2.48
G5C C6G U7C U10C U17G C18A | 3.39
G5C C6G U7C U10C U17G C18U | 3.11
G5C C6U G8C C9U G11C | 2.09
G5C C6U G8C C9U G11A | 0.125
G5C C6U G8C C9U G11U | 0.905
G5C C6G U7C U10C U17C C18U | 3.54
G5C C6G U7C U10C U17C C18G | 4.56
G5C C6G U7C U10C U17C C18A | 3.59
G5C C6U G8C C9U U10C C16G U17G | 0.254
G5C C6U G8C C9U U10C C16G U17C | 1.12
G5C C6U G8C C9U U10C C16G U17A | 2.4
G5C C6G U7G G8C U10C | 1.57
G5C C6G U7C U10C G38U A39C | 3.03
G5C C6G U7C U10C G38U A39U | 0.22

Variant | exon inclusion enrichment index
G5C C6G U7C U10C G38U A39G | 2.02
G5C C6U G8C C9U U10C A31C U32A | 1.46
G5C C6U G8C C9U U10C A31C U32G | 2.49
G5C C6U G8C C9U U10C A31C U32C | 3.49
G5C C6G U7G U10C | 1.51
G5C C6U G8C C9U U10C C18A C19A | 0.438
G5C C6U G8C C9U U10C C18A C19G | 0.289
G5C C6U G8C C9U U10C C18A C19U | 0.0905
G5C C6U G8C C9U U10C A20G G21A | 2.38
G5C C6U G8C C9U U10C A20G G21U | 2.01
G5C C6U G8C C9U U10C A20G G21C | 1.71
G5C C6U G8C C9U U10C A14U | 0.661
G5C C6U G8C C9U U10C A14C | 1.3
G5C C6U G8C C9U U10C A14G | 1.2
G5C C6U C9G U10C | 1.31
G5C C6G U7C U10C U27G G28A | 3.58
G5C C6G U7C U10C U27G G28U | 0.0303
G5C C6G U7C U10C U27G G28C | 2.55
G5C C6U G8C C9U U10C A29G A30U | 0.538
G5C C6U G8C C9U U10C A29G A30G | 1.37
G5C C6U G8C C9U U10C A29G A30C | 0.838
G5C C6U G8A C9G U10C | 0.184
G5C C6U C9A U10C | 1.69
